Results on 4 molecules are retold here after paper PMC6053351, “Structural and biochemical insights into human zinc finger protein AEBP2 reveals interactions with RBBP4”.

This data set concerns the target AEBP2 ZF1-3 (Homo sapiens, UniProt Q6ZN18 258-357). Kind of data set: fluorescence polarization; FPA with dsDNA: 25 mM Tris pH 7.4, 150 mM salt (salt identity and rest truncated in material), 50 nM FAM-DNA, 200 ul; G3A4 buffer and temperature not given in material. As to conditions: protein: recombinant, tags: His6. (In general: Polarisation of emitted light reports the rotation of a fluorescent probe.)

Where [1] appears, read: label: 5'-FAM on sense strand, blunt.

Sequence of AEBP2 ZF1-3 (Q6ZN18 258-357): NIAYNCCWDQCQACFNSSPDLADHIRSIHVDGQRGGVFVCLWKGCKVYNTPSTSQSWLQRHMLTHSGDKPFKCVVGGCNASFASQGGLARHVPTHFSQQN

B1: AT-rich (dsDNA)
DNA 1: ATAATTTATATTTATTATTTTATTATAATTTATATAATTTATAT
DNA 2: ATATAAATTATATAAATTATAATAAAATAATAAATATAAATTAT
Turning to B1, under setting [1], the binding result is listed as “no binding”.

B2: T1 (dsDNA)
DNA 1: GATCTTTAGTTAACTTCCTCTCTGTCTGCAGGCCACTCCAGATC
DNA 2: GATCTGGAGTGGCCTGCAGACAGAGAGGAAGTTAACTAAAGATC
Regarding B2, the binding result under setting [1] is “no binding”.

B3: GC-rich (dsDNA)
DNA 1: GCGGCCCGCGCCCGCCGCCCCGCCGCGGCCCGCGCGGCCCGCGC
DNA 2: GCGCGGGCCGCGCGGGCCGCGGCGGGGCGGCGGGCGCGGGCCGC
Consider B3, for which the binding result under setting [1] was “no binding”.

B4: G3A4 (structured_DNA)
DNA: AAAAAAGGGAAAAGGGAAAAGGGAAAAGGGAAAAAAAAAA
As for B4, under “label: 5'-FAM, G4”, the binding result is “no binding”.
